Measured values published in patent US20250339531A1, “DUX4 POLYPEPTIDES AND NUCLEIC ACIDS FOR TREATING INFLAMMATORY AND AUTOIMMUNE CONDITIONS” (Fred Hutchinson Cancer Center, priority 2021, published 2025).

What was measured:
[1] = target: Tubulin beta-6 chain (Homo sapiens) (UniProt Q9BUF5); experiment: anti-FLAG co-IP LC-MS, exp 3, +IFNg +Dox
[2] = target: Importin-5 (Fragment) (Homo sapiens) (UniProt O00410); experiment: anti-FLAG co-IP LC-MS, exp 3, +IFNg +Dox
[3] = target: Histone acetyltransferase type B catalytic subunit (Homo sapiens) (UniProt O14929); experiment: anti-FLAG co-IP LC-MS, exp 3, +IFNg +Dox
Chain of Histone acetyltransferase type B catalytic subunit (Homo sapiens) (O14929 2-419 limits assumed): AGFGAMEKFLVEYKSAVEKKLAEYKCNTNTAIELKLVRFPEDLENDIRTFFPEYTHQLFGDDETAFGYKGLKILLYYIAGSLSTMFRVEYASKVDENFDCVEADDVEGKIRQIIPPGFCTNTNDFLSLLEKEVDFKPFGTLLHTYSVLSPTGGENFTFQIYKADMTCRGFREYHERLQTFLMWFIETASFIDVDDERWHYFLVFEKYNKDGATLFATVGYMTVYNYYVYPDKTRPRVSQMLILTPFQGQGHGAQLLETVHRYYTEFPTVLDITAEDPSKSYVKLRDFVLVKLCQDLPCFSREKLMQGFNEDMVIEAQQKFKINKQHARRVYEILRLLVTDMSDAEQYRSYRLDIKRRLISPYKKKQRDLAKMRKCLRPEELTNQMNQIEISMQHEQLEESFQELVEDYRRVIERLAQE

[4] = target: Procollagen-lysine,2-oxoglutarate 5-dioxygenase 2 (Homo sapiens) (UniProt O00469); experiment: anti-FLAG co-IP LC-MS, exp 3, +IFNg +Dox
[5] = target: 40S ribosomal protein S14 (Homo sapiens) (UniProt P62263); experiment: anti-FLAG co-IP LC-MS, exp 3, +IFNg +Dox
[6] = target: Serine/threonine-protein phosphatase 2A 65 kDa regulatory subunit A alpha isoform (Homo sapiens) (UniProt P30153); experiment: anti-FLAG co-IP LC-MS, exp 3, +IFNg +Dox
[7] = target: Keratin, type II cytoskeletal 71 (Homo sapiens) (UniProt Q3SY84); experiment: anti-FLAG co-IP LC-MS, exp 3, +IFNg +Dox
Chain of Keratin, type II cytoskeletal 71 (Homo sapiens) (Q3SY84 whole entry): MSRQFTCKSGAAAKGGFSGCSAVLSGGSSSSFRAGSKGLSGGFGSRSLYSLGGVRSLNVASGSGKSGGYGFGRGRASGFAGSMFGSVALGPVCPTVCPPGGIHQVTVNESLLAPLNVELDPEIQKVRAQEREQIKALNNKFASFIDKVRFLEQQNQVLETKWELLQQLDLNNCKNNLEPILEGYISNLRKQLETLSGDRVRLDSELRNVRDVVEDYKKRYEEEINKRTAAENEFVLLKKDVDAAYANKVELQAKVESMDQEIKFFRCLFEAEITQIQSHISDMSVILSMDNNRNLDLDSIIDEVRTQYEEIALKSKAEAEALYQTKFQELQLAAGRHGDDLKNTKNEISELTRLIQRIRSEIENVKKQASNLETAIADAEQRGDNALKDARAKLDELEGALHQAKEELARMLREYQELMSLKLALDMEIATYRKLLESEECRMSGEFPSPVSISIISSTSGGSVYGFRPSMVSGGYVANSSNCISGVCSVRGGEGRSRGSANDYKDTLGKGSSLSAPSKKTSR

[8] = target: Signal transducer and activator of transcription 3 (Homo sapiens) (UniProt P40763); experiment: anti-FLAG co-IP LC-MS, exp 3, +IFNg +Dox
Chain of Signal transducer and activator of transcription 3 (Homo sapiens) (P40763 2-770 limits assumed): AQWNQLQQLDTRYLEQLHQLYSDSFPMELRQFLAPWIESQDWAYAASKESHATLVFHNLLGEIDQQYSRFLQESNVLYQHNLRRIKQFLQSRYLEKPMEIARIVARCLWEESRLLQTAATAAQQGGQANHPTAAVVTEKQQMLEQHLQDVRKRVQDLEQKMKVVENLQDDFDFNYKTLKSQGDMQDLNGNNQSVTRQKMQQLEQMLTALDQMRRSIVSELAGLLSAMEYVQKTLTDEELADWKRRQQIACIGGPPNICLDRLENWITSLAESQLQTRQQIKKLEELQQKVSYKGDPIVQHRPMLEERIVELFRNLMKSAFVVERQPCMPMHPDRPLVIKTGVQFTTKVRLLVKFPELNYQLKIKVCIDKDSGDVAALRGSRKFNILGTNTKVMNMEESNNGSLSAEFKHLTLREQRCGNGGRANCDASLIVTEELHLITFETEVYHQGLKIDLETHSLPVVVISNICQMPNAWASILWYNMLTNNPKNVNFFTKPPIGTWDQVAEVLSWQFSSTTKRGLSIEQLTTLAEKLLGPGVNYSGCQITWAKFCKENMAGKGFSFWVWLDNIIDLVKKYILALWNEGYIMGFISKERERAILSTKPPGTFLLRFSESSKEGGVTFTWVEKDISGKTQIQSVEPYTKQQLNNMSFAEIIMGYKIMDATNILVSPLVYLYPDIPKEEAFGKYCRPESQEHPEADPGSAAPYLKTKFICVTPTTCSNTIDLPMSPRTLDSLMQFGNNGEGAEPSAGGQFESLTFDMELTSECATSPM

[9] = target: Heat shock cognate 71 kDa protein (Homo sapiens) (UniProt P11142); experiment: anti-FLAG co-IP LC-MS, exp 3, +IFNg +Dox
[10] = target: 40S ribosomal protein S4, X isoform (Homo sapiens) (UniProt P62701); experiment: anti-FLAG co-IP LC-MS, exp 3, +IFNg +Dox
[11] = target: AP-2 complex subunit beta (Homo sapiens) (UniProt P63010); experiment: anti-FLAG co-IP LC-MS, exp 3, +IFNg +Dox
Chain of AP-2 complex subunit beta (Homo sapiens) (P63010 2-937 limits assumed, one chain of several): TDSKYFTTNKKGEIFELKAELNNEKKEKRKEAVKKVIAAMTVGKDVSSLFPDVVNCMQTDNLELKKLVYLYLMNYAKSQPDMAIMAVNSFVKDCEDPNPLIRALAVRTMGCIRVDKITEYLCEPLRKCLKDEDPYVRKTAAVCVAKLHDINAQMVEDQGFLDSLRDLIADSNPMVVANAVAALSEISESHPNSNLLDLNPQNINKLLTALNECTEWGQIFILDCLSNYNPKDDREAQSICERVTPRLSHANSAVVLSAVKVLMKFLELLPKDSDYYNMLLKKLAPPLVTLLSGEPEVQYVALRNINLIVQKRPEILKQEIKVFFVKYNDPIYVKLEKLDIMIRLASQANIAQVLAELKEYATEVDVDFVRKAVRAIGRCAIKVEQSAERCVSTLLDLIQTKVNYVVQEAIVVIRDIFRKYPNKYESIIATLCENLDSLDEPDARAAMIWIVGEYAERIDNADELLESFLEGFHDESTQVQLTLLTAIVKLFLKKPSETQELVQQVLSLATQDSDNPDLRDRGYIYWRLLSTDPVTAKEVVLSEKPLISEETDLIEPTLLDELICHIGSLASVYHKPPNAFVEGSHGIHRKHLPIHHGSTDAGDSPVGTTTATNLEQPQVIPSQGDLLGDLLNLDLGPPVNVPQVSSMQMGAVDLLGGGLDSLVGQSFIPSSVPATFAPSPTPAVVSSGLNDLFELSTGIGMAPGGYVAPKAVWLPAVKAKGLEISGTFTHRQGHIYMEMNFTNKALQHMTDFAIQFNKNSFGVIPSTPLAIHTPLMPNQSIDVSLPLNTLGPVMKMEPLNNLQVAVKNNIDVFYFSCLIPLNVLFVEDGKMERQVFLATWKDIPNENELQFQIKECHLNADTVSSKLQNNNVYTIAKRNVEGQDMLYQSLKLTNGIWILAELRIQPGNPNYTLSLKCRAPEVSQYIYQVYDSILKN

[12] = target: D-3-phosphoglycerate dehydrogenase (Homo sapiens) (UniProt O43175); experiment: anti-FLAG co-IP LC-MS, exp 3, +IFNg +Dox
[13] = target: Splicing factor 3B subunit 3 (Homo sapiens) (UniProt Q15393); experiment: anti-FLAG co-IP LC-MS, exp 3, +IFNg +Dox
[14] = target: Ubiquitin carboxyl-terminal hydrolase 7 (Homo sapiens) (UniProt Q93009); experiment: anti-FLAG co-IP LC-MS, exp 3, +IFNg +Dox
Vimentin (Homo sapiens) [15] = target: Vimentin (Homo sapiens) (UniProt P08670); experiment: anti-FLAG co-IP LC-MS, exp 3, +IFNg +Dox
Chain of Vimentin (Homo sapiens) (P08670 2-466 limits assumed): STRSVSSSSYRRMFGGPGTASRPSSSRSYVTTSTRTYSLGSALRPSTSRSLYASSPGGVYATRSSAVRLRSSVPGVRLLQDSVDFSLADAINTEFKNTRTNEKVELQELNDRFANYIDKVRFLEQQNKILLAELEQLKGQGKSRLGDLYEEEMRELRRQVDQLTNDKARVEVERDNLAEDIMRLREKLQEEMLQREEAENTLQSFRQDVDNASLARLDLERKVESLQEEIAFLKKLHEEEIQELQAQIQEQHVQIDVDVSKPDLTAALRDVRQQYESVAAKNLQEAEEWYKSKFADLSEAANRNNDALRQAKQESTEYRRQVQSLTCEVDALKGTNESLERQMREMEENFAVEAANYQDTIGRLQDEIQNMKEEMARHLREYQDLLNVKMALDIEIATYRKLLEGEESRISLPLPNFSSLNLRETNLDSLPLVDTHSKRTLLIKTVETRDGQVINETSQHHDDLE

[16] = target: Protease serine 2 preproprotein (Homo sapiens) (UniProt A6XMV9); experiment: anti-FLAG co-IP LC-MS, exp 3, +IFNg +Dox
Chain of Protease serine 2 preproprotein (Homo sapiens) (A6XMV9 entry or part of it limits assumed, form in doubt): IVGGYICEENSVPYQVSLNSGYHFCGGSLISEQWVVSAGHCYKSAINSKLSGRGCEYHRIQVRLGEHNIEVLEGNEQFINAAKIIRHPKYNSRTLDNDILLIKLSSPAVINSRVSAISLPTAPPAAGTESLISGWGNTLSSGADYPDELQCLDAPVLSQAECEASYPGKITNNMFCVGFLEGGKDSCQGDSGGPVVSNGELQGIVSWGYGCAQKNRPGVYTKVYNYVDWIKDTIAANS

[17] = target: Spectrin alpha chain, non-erythrocytic 1 (Homo sapiens) (UniProt Q13813); experiment: anti-FLAG co-IP LC-MS, exp 3, +IFNg +Dox
[18] = target: Reticulon-4 (Homo sapiens) (UniProt Q9NQC3); experiment: anti-FLAG co-IP LC-MS, exp 3, +IFNg +Dox
[19] = target: 40S ribosomal protein S8 (Homo sapiens) (UniProt P62241); experiment: anti-FLAG co-IP LC-MS, exp 3, +IFNg +Dox
[20] = target: Tubulin alpha chain (Homo sapiens) (UniProt F5H5D3); experiment: anti-FLAG co-IP LC-MS, exp 3, +IFNg +Dox
Chain of Tubulin alpha chain (Homo sapiens) (F5H5D3 entry or part of it limits assumed, form in doubt): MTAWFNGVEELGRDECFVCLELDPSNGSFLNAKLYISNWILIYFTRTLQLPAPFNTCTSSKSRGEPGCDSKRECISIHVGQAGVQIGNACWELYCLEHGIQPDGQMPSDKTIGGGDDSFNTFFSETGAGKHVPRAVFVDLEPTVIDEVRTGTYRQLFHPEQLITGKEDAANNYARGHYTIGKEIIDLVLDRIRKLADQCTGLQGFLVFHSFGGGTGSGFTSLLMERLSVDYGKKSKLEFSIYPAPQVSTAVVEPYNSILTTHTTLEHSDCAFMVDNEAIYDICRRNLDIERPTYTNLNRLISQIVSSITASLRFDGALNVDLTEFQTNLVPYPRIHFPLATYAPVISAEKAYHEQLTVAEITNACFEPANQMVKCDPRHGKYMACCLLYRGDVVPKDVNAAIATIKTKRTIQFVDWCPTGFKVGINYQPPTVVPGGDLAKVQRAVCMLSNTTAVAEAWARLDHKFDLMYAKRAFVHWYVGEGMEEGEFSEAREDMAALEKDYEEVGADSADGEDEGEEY

[21] = target: Probable ubiquitin carboxyl-terminal hydrolase FAF-X (Homo sapiens) (UniProt Q93008); experiment: anti-FLAG co-IP LC-MS, exp 3, +IFNg +Dox
[22] = target: Protein S100-A6 (Homo sapiens) (UniProt P06703); experiment: anti-FLAG co-IP LC-MS, exp 4, +Dox +IFNG
[23] = target: Src substrate cortactin (Homo sapiens) (UniProt Q14247); experiment: anti-FLAG co-IP LC-MS, exp 4, +Dox +IFNG
[24] = target: 40S ribosomal protein S3 (Homo sapiens) (UniProt P23396); experiment: anti-FLAG co-IP LC-MS, exp 4, +Dox +IFNG
[25] = target: Actin-related protein 3 (Homo sapiens) (UniProt P61158); experiment: anti-FLAG co-IP LC-MS, exp 4, +Dox +IFNG
[26] = target: Heat shock protein HSP 90-beta (Homo sapiens) (UniProt P08238); experiment: anti-FLAG co-IP LC-MS, exp 4, +Dox +IFNG
[27] = target: Ubiquitin carboxyl-terminal hydrolase 11 (Homo sapiens) (UniProt P51784); experiment: anti-FLAG co-IP LC-MS, exp 4, +Dox +IFNG
[28] = target: T-complex protein 1 subunit theta (Homo sapiens) (UniProt P50990); experiment: anti-FLAG co-IP LC-MS, exp 4, +Dox +IFNG
[29] = target: Junctional sarcoplasmic reticulum protein 1 (Homo sapiens) (UniProt Q96MG2); experiment: anti-FLAG co-IP LC-MS, exp 4, +Dox +IFNG
Chain of Junctional sarcoplasmic reticulum protein 1 (Homo sapiens) (Q96MG2 whole entry): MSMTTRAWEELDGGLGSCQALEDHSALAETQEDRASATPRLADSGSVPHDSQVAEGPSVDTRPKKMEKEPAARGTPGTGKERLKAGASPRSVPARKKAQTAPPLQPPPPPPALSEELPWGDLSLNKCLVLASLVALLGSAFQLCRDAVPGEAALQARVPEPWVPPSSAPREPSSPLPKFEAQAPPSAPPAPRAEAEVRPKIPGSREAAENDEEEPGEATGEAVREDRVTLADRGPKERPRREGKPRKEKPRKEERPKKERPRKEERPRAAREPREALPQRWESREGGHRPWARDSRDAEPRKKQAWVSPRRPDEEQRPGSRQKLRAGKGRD

Filamin-C (Homo sapiens) = Filamin-C (Homo sapiens) (UniProt Q14315); experiment: anti-FLAG co-IP LC-MS, exp 4, +Dox +IFNG
Vimentin (Homo sapiens) [30] = target: Vimentin (Homo sapiens) (UniProt P08670); experiment: anti-FLAG co-IP LC-MS, exp 4, +Dox +IFNG
[31] = target: Protease serine 2 preproprotein (Homo sapiens) (UniProt A6XMV9); experiment: anti-FLAG co-IP LC-MS, exp 4, +Dox +IFNG
[32] = target: Dynactin subunit 1 (Homo sapiens) (UniProt Q14203); experiment: anti-FLAG co-IP LC-MS, exp 4, +Dox +IFNG
[33] = target: AP-2 complex subunit mu (Homo sapiens) (UniProt E9PFW3); experiment: anti-FLAG co-IP LC-MS, exp 4, +Dox +IFNG
[34] = target: 60S ribosomal protein L5 (Homo sapiens) (UniProt P46777); experiment: anti-FLAG co-IP LC-MS, exp 4, +Dox +IFNG
[35] = target: 4F2 cell-surface antigen heavy chain (Homo sapiens) (UniProt P08195); experiment: anti-FLAG co-IP LC-MS, exp 4, +Dox +IFNG
Chain of 4F2 cell-surface antigen heavy chain (Homo sapiens) (P08195 103-630 limits assumed): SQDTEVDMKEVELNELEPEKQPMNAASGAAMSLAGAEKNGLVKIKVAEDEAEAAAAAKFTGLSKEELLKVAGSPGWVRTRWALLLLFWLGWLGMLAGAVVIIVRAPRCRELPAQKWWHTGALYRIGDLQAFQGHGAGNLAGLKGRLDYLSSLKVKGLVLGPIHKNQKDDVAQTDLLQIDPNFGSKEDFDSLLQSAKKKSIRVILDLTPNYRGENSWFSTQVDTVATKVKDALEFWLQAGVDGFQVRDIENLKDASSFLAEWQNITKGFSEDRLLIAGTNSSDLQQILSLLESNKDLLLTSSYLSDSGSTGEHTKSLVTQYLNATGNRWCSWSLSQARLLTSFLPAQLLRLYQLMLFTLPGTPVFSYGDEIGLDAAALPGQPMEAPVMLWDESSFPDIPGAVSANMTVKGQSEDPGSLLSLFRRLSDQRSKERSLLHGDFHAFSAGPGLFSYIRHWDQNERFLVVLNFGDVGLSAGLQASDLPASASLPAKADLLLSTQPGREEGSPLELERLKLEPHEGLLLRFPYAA

Question: What does the source list for i3XFLAG-NLS-CTDaa154-424?
Answer: PSMs [1]: 39 PSMs; PSMs [2]: 3 PSMs; PSMs [3]: 3 PSMs; PSMs [4]: 3 PSMs; PSMs [5]: 3 PSMs; PSMs [6]: 14 PSMs; PSMs [7]: 9 PSMs; PSMs [8]: 3 PSMs; PSMs [9]: 54 PSMs; PSMs [10]: 2 PSMs; PSMs [11]: 26 PSMs; PSMs [12]: 3 PSMs; PSMs [13]: 3 PSMs; PSMs [14]: 6 PSMs; PSMs (Vimentin (Homo sapiens) [15]): 45 PSMs; PSMs [16]: 2 PSMs; PSMs [17]: 10 PSMs; PSMs [18]: 7 PSMs; PSMs [19]: 6 PSMs; PSMs [20]: 47 PSMs; PSMs [21]: 5 PSMs; PSMs [22]: 2 PSMs; PSMs [23]: 5 PSMs; PSMs [24]: 11 PSMs; PSMs [25]: 3 PSMs; PSMs [26]: 10 PSMs; PSMs [27]: 2 PSMs; PSMs [28]: 3 PSMs; PSMs [29]: 3 PSMs; PSMs (Filamin-C (Homo sapiens)): 12 PSMs; PSMs (Vimentin (Homo sapiens) [30]): 55 PSMs; PSMs [31]: 2 PSMs; PSMs [32]: 2 PSMs; PSMs [33]: 3 PSMs; PSMs [34]: 19 PSMs; PSMs [35]: 2 PSMs
